According to patent US20190062453A1 (Hoffmann-La Roche, published 2019):

B1: DR5TAA-0033 (bispecific antibody, human IgG1, kappa)
heavy: not shown
light: ADIVMTQTPASVSEPVGGTVTIKCQASQSISTYLSWYQQKPGQPPKRLIYKASTLASGVPSRFKGSGSGTDFTLTIRDLECADAATYYCQPNSGIATYGAAFGGGTEVVVKRTVAAPSVFIFPPSDEQLKSGTASVVCLLNNFYPREAKVQWKVDNALQSGNSQESVTEQDSKDSTYSLSSTLTLSKADYEKHKVYACEVTHQGLSSPVTKSFNRGEC
chain: EIVLTQSPGTLSLSPGERATLSCRASQSVSRSYLAWYQQKPGQAPRLLIIGASTRATGIPDRFSGSGSGTDFTLTISRLEPEDFAVYYCQQGQVIPPTFGQGTKVEIKSSASTKGPSVFPLAPSSKSTSGGTAALGCLVKDYFPEPVTVSWNSGALTSGVHTFPAVLQSSGLYSLSSVVTVPSSSLGTQTYICNVNHKPSNTKVDKKVEPKSCD
notes: also called 0011-28H1
B2: 28H1 (antibody, V domains shown)
VH: EVQLLESGGGLVQPGGSLRLSCAASGFTFSSHAMSWVRQAPGKGLEWVSAIWASGEQYYADSVKGRFTISRDNSKNTLYLQMNSLRAEDTAVYYCAKGWLGNFDYWGQGTLVTVSS
VL: EIVLTQSPGTLSLSPGERATLSCRASQSVSRSYLAWYQQKPGQAPRLLIIGASTRATGIPDRFSGSGSGTDFTLTISRLEPEDFAVYYCQQGQVIPPTFGQGTKVEIK
notes: also called FAP(28H1); 28H1 (IgG)

Experiments:
[1] = target: T1, cynomolgus DR5 in the TagLite assay (cynomolgus); test: TagLite TR-FRET on cells
T1 construct: also called cy DR5 (TagLite)

[2] = target: T2, human DR5 (recombinant, fusion format not stated for the assay) (human, UniProt O14763 56-207); test: SPR (Biacore), affinity, 2+2 captured and DR5 injected
T2 construct: all antigen constructs carry ECD aa 56-207; also called hu DR5; huDR5

[3] = target: T3, Cynom. DR5 (ECD)-AcTev-Fc-Avi (cynomolgus); test: as above
T3 construct: also called cynomolgus DR5; cy DR5

[4] = target: murine FAP on recombinant 3T3 cells (murine, UniProt P97321 1-761); test: cell-based or functional assay
[5] = target: T2, human DR5 (recombinant, fusion format …); test: SPR (Biacore), 2+2 over immobilised DR5 ECD
[6] = target: T3, Cynom. DR5 (ECD)-AcTev-Fc-Avi; test: SPR (Biacore), 2+2 over immobilised DR5 ECD
[7] = target: T4, Human FAP ectodomain + poly-lys-tag + his6-tag (human, UniProt Q12884 27-760); test: SPR (Biacore), bispecific antibody bound to immobilised human DR5-Fc, recombinant human FAP as second analyte (simultaneous binding)
T4 construct: also called recombinant soluble human FAP; hFAP

[8] = target: T4, Human FAP ectodomain + poly-lys-tag + …; test: Affinity human, method not stated

| Binder | Avidity [1] [nM] | Kd [2] [nM] | Kd [3] [nM] | Cell Death Detection ELISA, DLD-1 cells with 3T3 cells expressing murine FAP [4] [fold] | Avidity [5] [nM] | Avidity [6] [nM] | binding result [7] | Kd [8] [nM] |
| --- | --- | --- | --- | --- | --- | --- | --- | --- |
| B1 | 0.3 | 9.8 | 20.2 | 10 | 0.1 | 3.72 | binds |  |
| B2 |  |  |  |  |  |  |  | 2.6 |
